From article PMC8196545 (Cell reports, 2021) come the findings set out here.

The target of experiment [1] is HIV-1 NL4-3 Env on infected cells (HIV-1 group M subtype B, NL4-3 (pNL4-3 …, strain)). Put plainly: flow cytometry on cells. (In general: Flow cytometry measures light scatter and fluorescence of single cells or particles in a stream.)
Experiment [2] has as its target gp120 JR-CSF (recombinant) (HIV-1, UniProt P20871). The experiment in a line: ELISA. For orientation: An ELISA detects its analyte on a solid surface through an enzyme-linked reagent.

B1: HC antibody RI5281 (IgG1) (antibody, V domains shown)
VH: QVRLAEFGGGVVRPGESLTLSCATSGFSFTSYGMHWVRQTPGKGLEWVAVIWNDGSRRYYSDSVQGRFTIAKDFANKTLSLQMRDLRVGDTAVYFCARAYGPQSEIDSWGQGILVTVSS
VL: SYGLTQPSSVSVSPGQTAIITCFGNILPRKSAYWYRQTAGRAPTLVIFGDNNRPSGIPARFSGFTAGTVATLVIAATQVDDEGDYYCYSADNSGNHRGVFGGGTKLTVL
For the molecule B1, the binding result in experiment [1] and in experiment [2] was “binds” throughout.
